Measured values from IntAct's records for PubMed 20023629.

Target: mcl1_human MCL1 (UniProt Q07820)
Sequence (Q07820 whole entry): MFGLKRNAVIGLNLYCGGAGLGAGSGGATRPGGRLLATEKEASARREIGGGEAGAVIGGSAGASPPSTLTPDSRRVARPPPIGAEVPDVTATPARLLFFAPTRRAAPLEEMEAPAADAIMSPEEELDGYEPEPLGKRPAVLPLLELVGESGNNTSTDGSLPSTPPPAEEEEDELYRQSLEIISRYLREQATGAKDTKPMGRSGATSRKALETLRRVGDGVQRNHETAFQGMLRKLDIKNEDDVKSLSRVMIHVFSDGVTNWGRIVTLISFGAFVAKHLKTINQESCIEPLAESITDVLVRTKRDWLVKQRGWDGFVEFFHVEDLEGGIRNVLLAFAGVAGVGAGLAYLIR

Substance: Ubiquitin carboxyl-terminal hydrolase 9X (Homo sapiens), Q93008 C1566S
- effect of a mutation on the interaction: disrupting interaction
